According to PMC4872093, “Structural insights into DNA sequence recognition by Type ISP restriction-modification enzymes”:

T1: LlaGIΔN (UniProt Q93R01 1-1+166-1570, internal_change)
T1 sequence: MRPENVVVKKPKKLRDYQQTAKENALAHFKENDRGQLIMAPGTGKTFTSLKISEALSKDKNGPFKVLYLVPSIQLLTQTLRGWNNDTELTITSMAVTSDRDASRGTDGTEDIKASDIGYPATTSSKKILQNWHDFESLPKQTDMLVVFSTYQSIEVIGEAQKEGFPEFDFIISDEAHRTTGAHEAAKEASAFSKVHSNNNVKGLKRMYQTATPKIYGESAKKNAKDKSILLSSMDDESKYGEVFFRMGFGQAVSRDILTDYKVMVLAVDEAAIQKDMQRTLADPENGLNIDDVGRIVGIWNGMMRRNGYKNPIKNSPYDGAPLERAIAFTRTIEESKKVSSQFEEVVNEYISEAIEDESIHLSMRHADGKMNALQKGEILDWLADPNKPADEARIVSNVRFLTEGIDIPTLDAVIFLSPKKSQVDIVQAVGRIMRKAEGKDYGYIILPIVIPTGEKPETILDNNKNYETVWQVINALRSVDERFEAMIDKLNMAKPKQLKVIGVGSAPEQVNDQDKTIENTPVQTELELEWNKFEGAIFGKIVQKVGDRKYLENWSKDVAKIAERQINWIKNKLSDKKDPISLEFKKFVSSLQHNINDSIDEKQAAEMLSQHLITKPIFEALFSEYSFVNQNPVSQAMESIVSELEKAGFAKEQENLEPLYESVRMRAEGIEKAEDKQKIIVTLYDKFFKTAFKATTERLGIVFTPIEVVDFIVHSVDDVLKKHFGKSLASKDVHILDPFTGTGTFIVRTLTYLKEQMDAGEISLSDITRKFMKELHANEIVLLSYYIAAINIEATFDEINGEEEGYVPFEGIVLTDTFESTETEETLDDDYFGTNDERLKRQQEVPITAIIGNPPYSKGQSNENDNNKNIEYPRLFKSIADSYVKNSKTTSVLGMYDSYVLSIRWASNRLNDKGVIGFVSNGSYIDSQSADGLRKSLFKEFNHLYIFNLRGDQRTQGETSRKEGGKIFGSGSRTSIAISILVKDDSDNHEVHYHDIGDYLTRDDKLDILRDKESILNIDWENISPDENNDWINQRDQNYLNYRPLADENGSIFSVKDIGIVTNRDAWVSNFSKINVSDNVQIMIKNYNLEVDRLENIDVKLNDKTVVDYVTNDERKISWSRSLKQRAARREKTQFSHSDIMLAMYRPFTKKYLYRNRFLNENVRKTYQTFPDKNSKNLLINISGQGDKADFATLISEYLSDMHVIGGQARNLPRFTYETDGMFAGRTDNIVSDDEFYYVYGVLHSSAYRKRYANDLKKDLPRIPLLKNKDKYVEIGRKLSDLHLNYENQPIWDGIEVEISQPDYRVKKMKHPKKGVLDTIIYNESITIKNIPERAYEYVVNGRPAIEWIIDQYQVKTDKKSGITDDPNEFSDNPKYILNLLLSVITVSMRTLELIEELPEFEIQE

B1: LlaGIΔN co-crystal duplex (22 bp) (dsDNA)
DNA 1: TTAGCTAATAGACTGGATGGAGG
DNA 2: TCCTCCATCCAGTCTATTAGCTA
B2: LlaGI co-crystal duplex (28 bp) (dsDNA)
DNA 1: GCTCTAGCTAATAGACTGGATGGAGGTG
DNA 2: CACCTCCATCCAGTCTATTAGCTAGAGC

Experiments:
LlaGIΔN = target: T1, LlaGIΔN; assay: X-ray crystallography, 2.84 A; no AdoMet; target adenine flipped; EMSA: 50 mM Tris-HCl pH 7.4, 100 mM NaCl, 10 mM MgCl2, 0.01 mg/ml BSA, 1 mM DTT, 10% glycerol, 4 C. Crystals at 291 K: LlaGIΔN 100 mM Tris-HCl pH 7.4, 20% PEG 20000, 4% PEG 550 MME, 150-250 mM Na acetate; LlaGI 100 mM MES pH 5.6, 300 mM KCl, 6.5% PEG 20000; conditions: protein: recombinant; 5' overhang 1 nt (T) on both strands, 22 bp paired
[1] = target: LlaGI full-length (crystal) (UniProt Q93R01 1-1570, D78A); assay: X-ray crystallography, 7.4 A; EMSA: 50 mM Tris-HCl pH 7.4, 100 mM NaCl, 10 mM MgCl2, 0.01 mg/ml BSA, 1 mM DTT, 10% glycerol, 4 C. Crystals at 291 K: LlaGIΔN 100 mM Tris-HCl pH 7.4, 20% PEG 20000, 4% PEG 550 MME, 150-250 mM Na acetate; LlaGI 100 mM MES pH 5.6, 300 mM KCl, 6.5% PEG 20000; conditions: protein: recombinant; blunt

| Binder | binding result (LlaGIΔN) | binding result [1] |
| --- | --- | --- |
| B1 | binds |  |
| B2 |  | binds |
